Where a chain is given by its changes, count along the chain named.
T1: recombinant human TIGIT (human, UniProt Q495A1 22-141, limits assumed)
T1 construct: recombinant human TIGIT used in Carterra SPR; also called hTIGIT
T1 sequence (looked up): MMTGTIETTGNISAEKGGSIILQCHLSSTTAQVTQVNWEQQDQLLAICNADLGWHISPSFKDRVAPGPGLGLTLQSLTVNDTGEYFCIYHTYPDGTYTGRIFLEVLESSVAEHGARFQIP

B1: TIGIT-SC9 (Fc fusion)
VHH: EVQLVESGGGLVQPGGSLRLSCAASGNTFSGGFMGWFRQAPGKEREWVASVLRGGYTWYADSVKGRFTISADNSKNTAYLQMNSLKPEDTAVYYCVNGYSYGRDYWGQGTLVTVSS
notes: VHH-Fc fusion in assay
B2: TIGIT-SC179 (Fc fusion)
VHH: EVQLVESGGGLVQPGGSLRLSCAASGFTFSPSWMGWFRQAPGKEREWVASVLRGGYTWYADSVKGRFTISADNSKNTAYLQMNSLKPEDTAVYYCASEVASGETDYWGQGTLVTVSS
notes: VHH-Fc fusion in assay
B3: TIGIT-SC178 (Fc fusion)
VHH: B2 VHH with F29L
notes: VHH-Fc fusion in assay
B4: TIGIT-SC163 (Fc fusion)
VHH: B2 VHH with S30D, P31R, S97T, E98D, V99K, A100R, S101G, G102P, E103H, T104P
notes: VHH-Fc fusion in assay
B5: TIGIT-SC166 (Fc fusion)
VHH: B2 VHH with S30D, P31R, S97R, V99G, A100S, S101G, G102Y, E103A, T104S
notes: VHH-Fc fusion in assay
B6: TIGIT-SC168 (Fc fusion)
VHH: EVQLVESGGGLVQPGGSLRLSCAASGFTFDRSWMGWFRQAPGKEREWVASVLRGGYAWYADSVKGRFTISADNSKNTAYLQMSSLKPEDTAVYYCAREGSGYASDYWGQGTLVTVSS
notes: VHH-Fc fusion in assay
B7: TIGIT-SC4 (Fc fusion)
VHH: EVQLVESGGGLVQPGGSLRLSCAASGSIDRINAMGWFRQATGKEREWVASVLRGGYTWYADSVKGRFTISADNSKNTAYLQMNSLKPEDTAVYYCARDSYSTSFWFDPWGQGTLVTVSS
notes: VHH-Fc fusion in assay
B8: TIGIT-SC214 (Fc fusion)
VHH: EVQLVESGGGLVQPGGSLRLSCAASGFTFGDSWMGWFRQAPGKEHEFVAAIWRSGTLKAYADSVKGRFTISADNSKNTAYLQMNSLKPEDTAVYYCTSYDAVAGTRDFWGQGTLVTVSS
notes: VHH-Fc fusion in assay
B9: TIGIT-SC69 (Fc fusion)
VHH: EVQLVESGGGLVQPGGSLRLSCAASGGTFNGRAMGWFRQAPGKEREFVAAISSIGDTYYADSVKGRFTISADNSKNTAYLQMNSLKPEDTAVYYCARWRLDRRQGFYYAMDVWGQGTLVTVSS
notes: VHH-Fc fusion in assay
B10: TIGIT-SC70 (Fc fusion)
VHH: EVQLVESGGGLVQPGGSLRLSCAASGRTFSSFAMGWFRQAPGKEREFVAAISGSGEDTYYADSVKGRFTISADNSKNTAYLQMNSLKPEDTAVYYCARWRLDRRQGFYYAMDVWGQGTLVTVSS
notes: VHH-Fc fusion in assay
B11: TIGIT-SC92 (Fc fusion)
VHH: EVQLVESGGGLVQPGGSLRLSCAASGSTIENYAMGWFRQAPGKEREFVAAIDWSGGSTYYADSVKGRFTISADNSKNTAYLQMNSLKPEDTAVYYCARWRSIWSGYDDYYYMDVWGQGTLVTVSS
notes: VHH-Fc fusion in assay
B12: TIGIT-SC93 (Fc fusion)
VHH: B11 VHH with G26S, S27R, I29V, E30S, N31S, Y32H, D52S, G56V, S57T
notes: VHH-Fc fusion in assay
B13: TIGIT-SC91 (Fc fusion)
VHH: B11 VHH with S27F, I29F, E30S, D52N, S54N, G55S, G56R
notes: VHH-Fc fusion in assay
B14: TIGIT-SC76 (Fc fusion)
VHH: EVQLVESGGGLVQPGGSLRLSCAASGFTFSDYAMGWFRQAPGKERELVARIGHDGSTDYADSVKGRFTISADNSKNTAYLQMNSLKPEDTAVYYCLGGLDPWGQGTLVTVSS
notes: VHH-Fc fusion in assay
B15: TIGIT-SC71 (Fc fusion)
VHH: EVQLVESGGGLVQPGGSLRLSCAASGSIRSLNAMGWFRQAPGKEREFVAAINWDSARTYYADSVKGRFTISADNSKNTAYLQMNSLKPEDTAVYYCARWSAKRHSDTMTYYMDVWGQGTLVTVSS
notes: VHH-Fc fusion in assay
B16: TIGIT-SC122 (Fc fusion)
VHH: EVQLVESGGGLVQPGGSLRLSCAASGFSFDDYVMGWFRQAPGKEREFVAAISMSGGYTHYADSVKGRFTISADNSKNTAYLQMNSLKPEDTAVYYCAREGYYGSGSYLVYWGQGTLVTVSS
notes: VHH-Fc fusion in assay
B17: TIGIT-SC123 (Fc fusion)
VHH: B16 VHH with F27S, S28I, D30S, D31G, Y32N, V33T, M53W, G56A, H59E
notes: VHH-Fc fusion in assay
B18: TIGIT-SC86 (Fc fusion)
VHH: EVQLVESGGGLVQPGGSLRLSCAASGIIASDSAMGWFRQAPGKEREFVAAIRWSGKETWYADSVKGRFTISADNSKNTAYLQMNSLKPEDTAVYYCARWGGVTFGGVYPLEYWGQGTLVTVSS
notes: VHH-Fc fusion in assay
B19: TIGIT-SC88 (Fc fusion)
VHH: EVQLVESGGGLVQPGGSLRLSCAASGFTFSSDWMGWFRQAPGKEREFVAAINRSGHSTSYADSVKGRFTISADNSKNTAYLQMNSLKPEDTAVYYCARWGGVTFGGVYPLEYWGQGTLVTVSS
notes: VHH-Fc fusion in assay
B20: TIGIT-SC103 (Fc fusion)
VHH: EVQLVESGGGLVQPGGSLRLSCAASGTITSAVFMGWFRQAPGKEREFVAAISWSGGDTNYADSVKGRFTISADNSKNTAYLQMNSLKPEDTAVYYCARWGGITFGGVYPLDYWGQGTLVTVSS
notes: VHH-Fc fusion in assay
B21: TIGIT-SC43 (Fc fusion)
VHH: EVQLVESGGGLVQPGGSLRLSCAASGFTFADYAMGWFRQAPGKEREMVAAIGWNSGTTEYADSVKGRFTISADNSKNTAYLQMNSLKPEDTAVYYCARDTNGWFFDFWGQGTLVTVSS
notes: VHH-Fc fusion in assay
B22: TIGIT-SC40 (Fc fusion)
VHH: EVQLVESGGGLVQPGGSLRLSCAASGFSFDRWAMGWFRQAPGKERELVARISWNGGSTYYADSVKGRFTISADNSKNTAYLQMNSLKPEDTAVYYCARDDGWLQFMHWGQGTLVTVSS
notes: VHH-Fc fusion in assay
B23: TIGIT-SC208 (Fc fusion)
VHH: EVQLVESGGGLVQPGGSLRLSCAASGFLFDSYVMGWFRQAPGKEREFVAAIWRSGTLKAYADSVKGRFTISADNSKNTEYLQMNSLKPEDTAVYYCARDDYGDTRRYFQHWGQGTLVTVSS
notes: VHH-Fc fusion in assay
B24: TIGIT-SC209 (Fc fusion)
VHH: B23 VHH with D30N, V33W, T104Y, R106I
notes: VHH-Fc fusion in assay
B25: TIGIT-SC207 (Fc fusion)
VHH: B23 VHH with L28A, D30S
notes: VHH-Fc fusion in assay
B26: TIGIT-SC106 (Fc fusion)
VHH: EVQLVESGGGLVQPGGSLRLSCAASGFPFDDYAMGWFRQAPGKERELVAVIRWTGMSTHYADSVKGRFTISADNSKNTAYLQMNSLKPEDTAVYYCAKGIAVAGAFDYWGQGTLVTVSS
notes: VHH-Fc fusion in assay
B27: TIGIT-SC55 (Fc fusion)
VHH: B26 VHH with S57N
notes: VHH-Fc fusion in assay
B28: TIGIT-SC7 (Fc fusion)
VHH: EVQLVESGGGLVQPGGSLRLSCAASGRSFSMYVMGWFRQAPGKEREGVSFISGSDGSTLYADSVKGRFTISADNSKNTAYLQMNSLKPEDTAVYYCARGSIAARPVFFDYWGQGTLVTVSS
notes: VHH-Fc fusion in assay
B29: TIGIT-SC33 (Fc fusion)
VHH: EVQLVESGGGLVQPGGSLRLSCAASGFLFDSYAMGWFRQAPGKEREFVAAVSQSGLLTFYADSVKGRFTISADNSKNTAYLQMNSLKPEDTAVYYCASRTSSWWWFDPWGQGTLVTVSS
notes: VHH-Fc fusion in assay
B30: TIGIT-SC74 (Fc fusion)
VHH: EVQLVESGGGLVQPGGSLRLSCAASGRTFANNAMGWFRQAPGKEREFVAAINWSGGNTYYADSVKGRFTISADNSKNTAYLQMNSLKPEDTAVYYCAKWSYYGSGLYGMDVWGQGTLVTVSS
notes: VHH-Fc fusion in assay
B31: TIGIT-SC82 (Fc fusion)
VHH: B30 VHH with R27S, T28M, F29S, A30S, N32Y, N52D, S100F, G108T, M109L
notes: VHH-Fc fusion in assay
B32: TIGIT-SC75 (Fc fusion)
VHH: B30 VHH with R27F, T28I, F29G, A30N, N31Y, N32H, N52R, G55D, N57S, T58S
notes: VHH-Fc fusion in assay
B33: TIGIT-SC83 (Fc fusion)
VHH: B30 VHH with A30S, N31D, N32D, N52S, W53R, S100F, G108T, M109L
notes: VHH-Fc fusion in assay

These binders were tested against T1, recombinant human TIGIT (assay: SPR Carterra, average).
Experimental: Binding affinities of VHH-Fc proteins to recombinant human TIGIT were measured by SPR using a Carterra instrument (Table 10A). […] Average values reported from measurements from 1-2 samples.

Kd | koff | kon | Binder
9.35 nM | 0.00159 s⁻¹ | 268000 M⁻¹ s⁻¹ | B1
51.1 nM | 0.00269 s⁻¹ | 50400 M⁻¹ s⁻¹ | B2
296 nM | 0.0776 s⁻¹ | 262000 M⁻¹ s⁻¹ | B3
86.4 nM | 0.00269 s⁻¹ | 38400 M⁻¹ s⁻¹ | B4
24.9 nM | 0.00147 s⁻¹ | 58400 M⁻¹ s⁻¹ | B5
83.6 nM | 0.00254 s⁻¹ | 30400 M⁻¹ s⁻¹ | B6
6.24 nM | 0.00222 s⁻¹ | 356000 M⁻¹ s⁻¹ | B7
6.13 nM | 0.0248 s⁻¹ | 4.05e+06 M⁻¹ s⁻¹ | B8
12.6 nM | 0.00276 s⁻¹ | 219000 M⁻¹ s⁻¹ | B9
11.2 nM | 0.00359 s⁻¹ | 321000 M⁻¹ s⁻¹ | B10
105 nM | 0.00289 s⁻¹ | 27500 M⁻¹ s⁻¹ | B11
49.9 nM | 0.00407 s⁻¹ | 81500 M⁻¹ s⁻¹ | B12
5.42 nM | 0.0071 s⁻¹ | 1.31e+06 M⁻¹ s⁻¹ | B13
7.64 nM | 0.00717 s⁻¹ | 938000 M⁻¹ s⁻¹ | B14
10.5 nM | 0.00436 s⁻¹ | 413000 M⁻¹ s⁻¹ | B15
10.7 nM | 0.00217 s⁻¹ | 524000 M⁻¹ s⁻¹ | B16
47.3 nM | 0.00232 s⁻¹ | 49100 M⁻¹ s⁻¹ | B17

Kd | koff | kon | Binder
7.14 nM | 0.00212 s⁻¹ | 341000 M⁻¹ s⁻¹ | B18
22 nM | 0.00204 s⁻¹ | 92500 M⁻¹ s⁻¹ | B19
34.3 nM | 0.00498 s⁻¹ | 145000 M⁻¹ s⁻¹ | B20
12 nM | 0.0013 s⁻¹ | 112000 M⁻¹ s⁻¹ | B21
11.4 nM | 0.0015 s⁻¹ | 137000 M⁻¹ s⁻¹ | B22
851 nM | 0.196 s⁻¹ | 231000 M⁻¹ s⁻¹ | B23
41.4 nM | 0.000625 s⁻¹ | 15100 M⁻¹ s⁻¹ | B24
12.2 nM | 0.00371 s⁻¹ | 528000 M⁻¹ s⁻¹ | B25
7.99 nM | 0.000753 s⁻¹ | 95500 M⁻¹ s⁻¹ | B26
28.5 nM | 0.00231 s⁻¹ | 90600 M⁻¹ s⁻¹ | B27
12.1 nM | 0.00372 s⁻¹ | 306000 M⁻¹ s⁻¹ | B28
6.72 nM | 0.00107 s⁻¹ | 182000 M⁻¹ s⁻¹ | B29
18 nM | 0.00329 s⁻¹ | 183000 M⁻¹ s⁻¹ | B30
57 nM | 0.00324 s⁻¹ | 56700 M⁻¹ s⁻¹ | B31
7.44 nM | 0.000376 s⁻¹ | 50500 M⁻¹ s⁻¹ | B32
29.1 nM | 0.00378 s⁻¹ | 132000 M⁻¹ s⁻¹ | B33

Source: patent US20260184782A1 (TWIST BIOSCIENCE, published 2026)
